Data on seven molecules can be found in US20250277046A1 (JULIUS MAXIMILIANS UNIVERSIT T W RZBURG, published 2025).

In the assay the target is T1, Fibroblast growth factor (FGF)-inducible 14 (Fn14) (UniProt Q9NP84 28-129, limits assumed).
T1 sequence (looked up): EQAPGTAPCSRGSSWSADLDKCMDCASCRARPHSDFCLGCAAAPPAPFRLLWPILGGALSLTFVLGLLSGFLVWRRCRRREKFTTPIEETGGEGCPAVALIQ
Kind of assay: cell-based or functional assay.

B1: 18D1-(3) (antibody)
heavy: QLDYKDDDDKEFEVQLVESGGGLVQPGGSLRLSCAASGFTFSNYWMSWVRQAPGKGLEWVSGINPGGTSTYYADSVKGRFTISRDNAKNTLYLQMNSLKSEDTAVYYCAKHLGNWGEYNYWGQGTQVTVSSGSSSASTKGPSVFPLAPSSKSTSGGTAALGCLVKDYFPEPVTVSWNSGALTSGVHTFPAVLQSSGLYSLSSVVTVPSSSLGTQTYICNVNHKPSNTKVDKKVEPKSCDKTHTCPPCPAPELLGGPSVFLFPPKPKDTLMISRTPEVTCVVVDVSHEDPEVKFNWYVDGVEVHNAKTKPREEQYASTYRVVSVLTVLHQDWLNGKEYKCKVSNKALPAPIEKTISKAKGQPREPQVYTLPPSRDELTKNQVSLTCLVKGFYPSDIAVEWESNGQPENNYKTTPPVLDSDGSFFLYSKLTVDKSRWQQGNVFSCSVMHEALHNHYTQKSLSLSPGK
light: QLDYKDDDDKEFQSALTQPPSVSGSPGKTVTISCAGTGGDVGYRNSVSWYQQLPGMAPKLLIYDVDKRASGITDRFSGSKSGDTASLTISGVQSEDEADYYCASQRSGIAAVFGGGTHLTVLGGSEIKRTVAAPSVFIFPPSDEQLKSGTASVVCLLNNFYPREAKVQWKVDNALQSGNSQESVTEQDSKDSTYSLSSTLTLSKADYEKHKVYACEVTHQGLSSPVTKSFNRGECLEEVQLVESGGGLVQPGGSLRLSCAASGFTFSNYWMSWVRQAPGKGLEWVSGINPGGTSTYYADSVKGRFTISRDNAKNTLYLQMNSLKSEDTAVYYCAKHLGNWGEYNYWGQGTQVTVSSRSSTKGPKLEEGEFSEAQLQSALTQPPSVSGSPGKTVTISCAGTGGDVGYRNSVSWYQQLPGMAPKLLIYDVDKRASGITDRFSGSKSGDTASLTISGVQSEDEADYYCASQRSGIAAVFGGGTHLTVLG
In the case of B1, the “enhancement of TNF-induced toxicity (HeLa-RIPK3-FADDKO cells, 1 ng/ml TNF), ED50” value (from here on “enhancement of TNF-induced toxicity”) is under 0.1 µg/mL and the “p100 processing (western blot), starting concentration” value (from here on “p100 processing (western blot)”) is about 20 ng/mL.

B2: 18D1-(4) (antibody)
heavy: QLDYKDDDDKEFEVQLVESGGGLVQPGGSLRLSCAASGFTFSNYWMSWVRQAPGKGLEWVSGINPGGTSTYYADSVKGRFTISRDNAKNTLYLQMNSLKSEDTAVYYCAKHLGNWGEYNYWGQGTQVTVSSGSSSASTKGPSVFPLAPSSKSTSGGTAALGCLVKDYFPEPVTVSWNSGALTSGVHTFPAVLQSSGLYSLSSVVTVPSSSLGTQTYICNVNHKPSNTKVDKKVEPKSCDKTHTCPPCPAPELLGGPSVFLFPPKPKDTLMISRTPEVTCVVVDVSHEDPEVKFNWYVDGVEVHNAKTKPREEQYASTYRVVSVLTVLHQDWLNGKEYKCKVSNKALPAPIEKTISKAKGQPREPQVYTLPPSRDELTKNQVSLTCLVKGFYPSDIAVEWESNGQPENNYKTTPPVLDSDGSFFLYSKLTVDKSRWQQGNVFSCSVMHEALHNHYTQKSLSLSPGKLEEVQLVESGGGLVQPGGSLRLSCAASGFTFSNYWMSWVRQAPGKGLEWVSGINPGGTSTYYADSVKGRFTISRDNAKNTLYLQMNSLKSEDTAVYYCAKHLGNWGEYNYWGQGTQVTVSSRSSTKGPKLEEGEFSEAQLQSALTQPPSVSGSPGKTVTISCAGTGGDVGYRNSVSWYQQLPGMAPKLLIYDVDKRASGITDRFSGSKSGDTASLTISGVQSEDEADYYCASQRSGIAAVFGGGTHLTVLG
light: QLDYKDDDDKEFQSALTQPPSVSGSPGKTVTISCAGTGGDVGYRNSVSWYQQLPGMAPKLLIYDVDKRASGITDRFSGSKSGDTASLTISGVQSEDEADYYCASQRSGIAAVFGGGTHLTVLGGSEIKRTVAAPSVFIFPPSDEQLKSGTASVVCLLNNFYPREAKVQWKVDNALQSGNSQESVTEQDSKDSTYSLSSTLTLSKADYEKHKVYACEVTHQGLSSPVTKSFNRGECLEEVQLVESGGGLVQPGGSLRLSCAASGFTFSNYWMSWVRQAPGKGLEWVSGINPGGTSTYYADSVKGRFTISRDNAKNTLYLQMNSLKSEDTAVYYCAKHLGNWGEYNYWGQGTQVTVSSRSSTKGPKLEEGEFSEAQLQSALTQPPSVSGSPGKTVTISCAGTGGDVGYRNSVSWYQQLPGMAPKLLIYDVDKRASGITDRFSGSKSGDTASLTISGVQSEDEADYYCASQRSGIAAVFGGGTHLTVLG
As for B2, the “enhancement of TNF-induced toxicity” value was under 0.1 µg/mL and the “p100 processing (western blot)” value is about 20 ng/mL.

B3: 18D1-(2) (antibody)
heavy: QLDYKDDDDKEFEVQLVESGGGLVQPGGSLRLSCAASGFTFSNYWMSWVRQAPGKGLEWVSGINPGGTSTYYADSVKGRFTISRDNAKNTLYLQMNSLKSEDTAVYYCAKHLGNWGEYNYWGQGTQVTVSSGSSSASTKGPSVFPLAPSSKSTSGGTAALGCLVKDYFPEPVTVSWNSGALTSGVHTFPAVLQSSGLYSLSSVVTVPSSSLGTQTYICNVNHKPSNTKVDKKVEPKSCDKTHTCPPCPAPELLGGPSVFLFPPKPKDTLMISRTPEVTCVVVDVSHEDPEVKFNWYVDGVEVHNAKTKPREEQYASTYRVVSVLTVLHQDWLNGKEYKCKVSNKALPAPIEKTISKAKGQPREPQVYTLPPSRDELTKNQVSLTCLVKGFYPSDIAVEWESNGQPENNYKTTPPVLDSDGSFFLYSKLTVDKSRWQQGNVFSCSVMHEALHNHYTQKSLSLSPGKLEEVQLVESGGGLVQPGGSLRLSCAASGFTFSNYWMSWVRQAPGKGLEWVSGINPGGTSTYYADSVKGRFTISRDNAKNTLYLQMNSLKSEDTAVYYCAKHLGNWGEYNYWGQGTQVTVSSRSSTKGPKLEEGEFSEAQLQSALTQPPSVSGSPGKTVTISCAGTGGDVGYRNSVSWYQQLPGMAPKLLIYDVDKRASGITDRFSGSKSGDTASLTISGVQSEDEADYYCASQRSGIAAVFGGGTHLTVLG
light: QLDYKDDDDKEFQSALTQPPSVSGSPGKTVTISCAGTGGDVGYRNSVSWYQQLPGMAPKLLIYDVDKRASGITDRFSGSKSGDTASLTISGVQSEDEADYYCASQRSGIAAVFGGGTHLTVLGGSEIKRTVAAPSVFIFPPSDEQLKSGTASVVCLLNNFYPREAKVQWKVDNALQSGNSQESVTEQDSKDSTYSLSSTLTLSKADYEKHKVYACEVTHQGLSSPVTKSFNRGEC
B3: the “enhancement of TNF-induced toxicity” value is under 0.1 µg/mL and the “p100 processing (western blot)” value is about 20 ng/mL.

B4: 18D1-(7) (antibody)
heavy: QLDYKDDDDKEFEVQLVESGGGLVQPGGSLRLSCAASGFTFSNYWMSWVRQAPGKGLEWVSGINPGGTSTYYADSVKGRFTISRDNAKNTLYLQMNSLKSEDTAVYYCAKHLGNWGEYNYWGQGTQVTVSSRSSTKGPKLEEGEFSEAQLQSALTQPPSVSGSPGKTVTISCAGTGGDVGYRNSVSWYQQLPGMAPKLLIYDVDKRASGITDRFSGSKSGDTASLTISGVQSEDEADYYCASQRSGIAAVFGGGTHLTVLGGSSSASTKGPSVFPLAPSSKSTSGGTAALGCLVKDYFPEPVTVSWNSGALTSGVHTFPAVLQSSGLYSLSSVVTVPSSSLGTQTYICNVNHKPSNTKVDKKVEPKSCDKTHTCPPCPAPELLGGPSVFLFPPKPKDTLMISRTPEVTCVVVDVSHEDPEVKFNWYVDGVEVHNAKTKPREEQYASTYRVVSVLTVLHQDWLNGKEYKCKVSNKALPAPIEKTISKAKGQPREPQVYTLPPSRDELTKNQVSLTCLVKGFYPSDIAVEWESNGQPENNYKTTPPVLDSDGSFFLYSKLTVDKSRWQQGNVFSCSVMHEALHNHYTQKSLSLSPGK
light: QLDYKDDDDKEFEVQLVESGGGLVQPGGSLRLSCAASGFTFSNYWMSWVRQAPGKGLEWVSGINPGGTSTYYADSVKGRFTISRDNAKNTLYLQMNSLKSEDTAVYYCAKHLGNWGEYNYWGQGTQVTVSSRSSTKGPKLEEGEFSEAQLQSALTQPPSVSGSPGKTVTISCAGTGGDVGYRNSVSWYQQLPGMAPKLLIYDVDKRASGITDRFSGSKSGDTASLTISGVQSEDEADYYCASQRSGIAAVFGGGTHLTVLGGSEIKRTVAAPSVFIFPPSDEQLKSGTASVVCLLNNFYPREAKVQWKVDNALQSGNSQESVTEQDSKDSTYSLSSTLTLSKADYEKHKVYACEVTHQGLSSPVTKSFNRGECLEEVQLVESGGGLVQPGGSLRLSCAASGFTFSNYWMSWVRQAPGKGLEWVSGINPGGTSTYYADSVKGRFTISRDNAKNTLYLQMNSLKSEDTAVYYCAKHLGNWGEYNYWGQGTQVTVSSRSSTKGPKLEEGEFSEAQLQSALTQPPSVSGSPGKTVTISCAGTGGDVGYRNSVSWYQQLPGMAPKLLIYDVDKRASGITDRFSGSKSGDTASLTISGVQSEDEADYYCASQRSGIAAVFGGGTHLTVLG
With B4, the “enhancement of TNF-induced toxicity” value was under 0.1 µg/mL and the “p100 processing (western blot)” value is about 200 ng/mL.

B5: 18D1-(8) (antibody)
heavy: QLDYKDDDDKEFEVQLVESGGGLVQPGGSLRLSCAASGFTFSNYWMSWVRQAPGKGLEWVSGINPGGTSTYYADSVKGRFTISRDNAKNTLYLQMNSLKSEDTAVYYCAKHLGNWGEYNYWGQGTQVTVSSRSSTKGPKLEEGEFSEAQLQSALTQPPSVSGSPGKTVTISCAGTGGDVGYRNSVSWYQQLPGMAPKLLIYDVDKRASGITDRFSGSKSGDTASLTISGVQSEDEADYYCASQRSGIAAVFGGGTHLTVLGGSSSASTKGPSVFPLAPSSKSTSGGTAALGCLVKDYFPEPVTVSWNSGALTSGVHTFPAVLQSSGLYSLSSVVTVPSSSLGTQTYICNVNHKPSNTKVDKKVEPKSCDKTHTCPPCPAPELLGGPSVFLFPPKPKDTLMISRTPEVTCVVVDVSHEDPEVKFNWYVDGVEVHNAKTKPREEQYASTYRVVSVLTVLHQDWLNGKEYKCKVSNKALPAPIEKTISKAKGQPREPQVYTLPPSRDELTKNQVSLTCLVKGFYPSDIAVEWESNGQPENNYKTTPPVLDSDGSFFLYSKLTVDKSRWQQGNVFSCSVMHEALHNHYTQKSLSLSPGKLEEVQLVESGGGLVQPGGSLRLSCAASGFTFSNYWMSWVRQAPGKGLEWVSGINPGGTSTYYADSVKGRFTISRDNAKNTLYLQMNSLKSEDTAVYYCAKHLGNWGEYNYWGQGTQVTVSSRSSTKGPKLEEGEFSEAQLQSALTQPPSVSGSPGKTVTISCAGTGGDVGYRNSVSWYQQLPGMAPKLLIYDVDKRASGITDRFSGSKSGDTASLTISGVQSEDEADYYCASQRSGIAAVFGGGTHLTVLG
light: QLDYKDDDDKEFEVQLVESGGGLVQPGGSLRLSCAASGFTFSNYWMSWVRQAPGKGLEWVSGINPGGTSTYYADSVKGRFTISRDNAKNTLYLQMNSLKSEDTAVYYCAKHLGNWGEYNYWGQGTQVTVSSRSSTKGPKLEEGEFSEAQLQSALTQPPSVSGSPGKTVTISCAGTGGDVGYRNSVSWYQQLPGMAPKLLIYDVDKRASGITDRFSGSKSGDTASLTISGVQSEDEADYYCASQRSGIAAVFGGGTHLTVLGGSEIKRTVAAPSVFIFPPSDEQLKSGTASVVCLLNNFYPREAKVQWKVDNALQSGNSQESVTEQDSKDSTYSLSSTLTLSKADYEKHKVYACEVTHQGLSSPVTKSFNRGECLEEVQLVESGGGLVQPGGSLRLSCAASGFTFSNYWMSWVRQAPGKGLEWVSGINPGGTSTYYADSVKGRFTISRDNAKNTLYLQMNSLKSEDTAVYYCAKHLGNWGEYNYWGQGTQVTVSSRSSTKGPKLEEGEFSEAQLQSALTQPPSVSGSPGKTVTISCAGTGGDVGYRNSVSWYQQLPGMAPKLLIYDVDKRASGITDRFSGSKSGDTASLTISGVQSEDEADYYCASQRSGIAAVFGGGTHLTVLG
B5: the “enhancement of TNF-induced toxicity” value was under 0.1 µg/mL and the “p100 processing (western blot)” value was about 200 ng/mL.

B6: 18D1-(5) (antibody)
heavy: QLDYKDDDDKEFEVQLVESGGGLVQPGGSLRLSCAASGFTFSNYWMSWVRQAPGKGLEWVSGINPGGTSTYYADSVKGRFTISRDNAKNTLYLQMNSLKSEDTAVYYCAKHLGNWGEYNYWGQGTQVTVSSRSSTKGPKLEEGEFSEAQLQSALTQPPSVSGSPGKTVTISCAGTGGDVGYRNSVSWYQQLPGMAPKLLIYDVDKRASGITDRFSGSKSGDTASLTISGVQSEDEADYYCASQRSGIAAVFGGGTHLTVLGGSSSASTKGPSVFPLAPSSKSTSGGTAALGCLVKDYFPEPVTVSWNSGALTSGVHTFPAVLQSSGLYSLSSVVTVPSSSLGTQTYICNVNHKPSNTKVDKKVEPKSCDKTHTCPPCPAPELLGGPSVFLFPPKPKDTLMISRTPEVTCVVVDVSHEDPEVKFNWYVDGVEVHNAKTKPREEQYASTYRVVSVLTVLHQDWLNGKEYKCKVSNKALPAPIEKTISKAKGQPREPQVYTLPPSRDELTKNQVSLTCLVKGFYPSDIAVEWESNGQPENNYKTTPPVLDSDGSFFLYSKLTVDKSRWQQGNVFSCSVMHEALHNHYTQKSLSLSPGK
light: QLDYKDDDDKEFEVQLVESGGGLVQPGGSLRLSCAASGFTFSNYWMSWVRQAPGKGLEWVSGINPGGTSTYYADSVKGRFTISRDNAKNTLYLQMNSLKSEDTAVYYCAKHLGNWGEYNYWGQGTQVTVSSRSSTKGPKLEEGEFSEAQLQSALTQPPSVSGSPGKTVTISCAGTGGDVGYRNSVSWYQQLPGMAPKLLIYDVDKRASGITDRFSGSKSGDTASLTISGVQSEDEADYYCASQRSGIAAVFGGGTHLTVLGGSEIKRTVAAPSVFIFPPSDEQLKSGTASVVCLLNNFYPREAKVQWKVDNALQSGNSQESVTEQDSKDSTYSLSSTLTLSKADYEKHKVYACEVTHQGLSSPVTKSFNRGEC
On to B6, for which the “enhancement of TNF-induced toxicity” value was under 0.1 µg/mL and the “p100 processing (western blot)” value is about 200 ng/mL.

B7: 18D1-(6) (antibody)
heavy: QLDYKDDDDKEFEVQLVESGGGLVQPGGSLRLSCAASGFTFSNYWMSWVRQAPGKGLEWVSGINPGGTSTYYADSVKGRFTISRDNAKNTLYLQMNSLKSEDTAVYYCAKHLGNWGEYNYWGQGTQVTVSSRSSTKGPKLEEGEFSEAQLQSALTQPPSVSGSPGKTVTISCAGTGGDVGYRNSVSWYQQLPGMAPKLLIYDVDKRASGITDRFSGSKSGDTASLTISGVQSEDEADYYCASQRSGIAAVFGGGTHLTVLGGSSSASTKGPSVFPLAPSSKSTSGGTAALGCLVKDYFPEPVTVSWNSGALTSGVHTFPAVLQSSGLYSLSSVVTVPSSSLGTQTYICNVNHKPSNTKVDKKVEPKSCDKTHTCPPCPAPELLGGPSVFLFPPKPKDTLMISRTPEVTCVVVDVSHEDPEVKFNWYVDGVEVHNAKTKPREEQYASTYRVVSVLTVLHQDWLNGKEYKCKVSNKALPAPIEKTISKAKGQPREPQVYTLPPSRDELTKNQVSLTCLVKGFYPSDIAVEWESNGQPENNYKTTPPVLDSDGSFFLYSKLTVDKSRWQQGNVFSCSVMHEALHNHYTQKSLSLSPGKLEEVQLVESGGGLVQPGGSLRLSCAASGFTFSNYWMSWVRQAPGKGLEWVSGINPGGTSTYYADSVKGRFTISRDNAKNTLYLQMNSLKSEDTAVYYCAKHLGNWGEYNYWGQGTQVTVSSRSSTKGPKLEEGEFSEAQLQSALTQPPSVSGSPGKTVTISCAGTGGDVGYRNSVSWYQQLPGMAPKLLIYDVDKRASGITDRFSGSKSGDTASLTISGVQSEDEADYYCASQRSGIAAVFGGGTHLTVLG
light: QLDYKDDDDKEFEVQLVESGGGLVQPGGSLRLSCAASGFTFSNYWMSWVRQAPGKGLEWVSGINPGGTSTYYADSVKGRFTISRDNAKNTLYLQMNSLKSEDTAVYYCAKHLGNWGEYNYWGQGTQVTVSSRSSTKGPKLEEGEFSEAQLQSALTQPPSVSGSPGKTVTISCAGTGGDVGYRNSVSWYQQLPGMAPKLLIYDVDKRASGITDRFSGSKSGDTASLTISGVQSEDEADYYCASQRSGIAAVFGGGTHLTVLGGSEIKRTVAAPSVFIFPPSDEQLKSGTASVVCLLNNFYPREAKVQWKVDNALQSGNSQESVTEQDSKDSTYSLSSTLTLSKADYEKHKVYACEVTHQGLSSPVTKSFNRGEC
In the case of B7, the “enhancement of TNF-induced toxicity” value is under 0.1 µg/mL and the “p100 processing (western blot)” value is about 200 ng/mL.
